Reference: patent US20100143336A1

Biological target: human Toll-like Receptor 2, wild type (human) (UniProt O60603)
Test: cell-based or functional assay

Sequence of UniProt O60603 (O60603 21-784 D726E limits assumed): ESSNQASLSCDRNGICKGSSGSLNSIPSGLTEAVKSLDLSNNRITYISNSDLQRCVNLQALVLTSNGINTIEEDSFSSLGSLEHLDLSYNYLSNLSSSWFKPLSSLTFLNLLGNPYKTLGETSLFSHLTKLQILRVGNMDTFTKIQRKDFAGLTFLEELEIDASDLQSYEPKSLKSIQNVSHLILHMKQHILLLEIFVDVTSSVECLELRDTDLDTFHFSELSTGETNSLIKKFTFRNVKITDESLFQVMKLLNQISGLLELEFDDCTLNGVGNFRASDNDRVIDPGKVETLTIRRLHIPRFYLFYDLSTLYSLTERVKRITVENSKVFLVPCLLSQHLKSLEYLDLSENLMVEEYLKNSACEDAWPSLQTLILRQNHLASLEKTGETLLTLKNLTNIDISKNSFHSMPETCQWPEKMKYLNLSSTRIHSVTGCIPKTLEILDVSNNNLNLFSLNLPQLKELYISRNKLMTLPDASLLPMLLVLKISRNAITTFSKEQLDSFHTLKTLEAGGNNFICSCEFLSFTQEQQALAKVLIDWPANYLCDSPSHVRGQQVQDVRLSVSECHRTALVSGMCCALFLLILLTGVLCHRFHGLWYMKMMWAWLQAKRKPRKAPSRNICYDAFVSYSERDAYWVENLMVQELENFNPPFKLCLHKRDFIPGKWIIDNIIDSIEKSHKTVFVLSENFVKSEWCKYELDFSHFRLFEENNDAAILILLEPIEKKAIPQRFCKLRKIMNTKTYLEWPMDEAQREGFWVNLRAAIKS

## OPN-301 anti-TLR2 monoclonal antibody (mouse Toll-like Receptor 2 (TLR2) antibody, clone T2.5, HyCult Biotechnology)
  TNF-alpha production from U937 cells stimulated with 100 ng/ml Pam3CSK4: 30 ng/mL
